Values quoted from earlier work as cited in paper PMC3773300 (Journal of inorganic biochemistry, 2013).

Conditions: Mb

## Mb: Myoglobin, heme protein involved in reversible O2 binding
  redox potential: 59 mV
